This is an account of results in US20030186841.

Holding throughout (test): cell_activity
One data set deals with 2C7LBDAS (synthetic). Conditions: about; estrogen, 6x2C7 SV40 luc, Cos cells.
A further data set deals with C7LBDAS (synthetic). Conditions: ligand-dependent, 6x2C7pGL3Luc.
In data set [1] the test system is C7LBDAS G400V G400V (human ER numbering) (synthetic). Conditions: ligand-dependent, 6x2C7pGL3Luc.
The next data set relates to E2E-PBD-VP64 (synthetic). To be noted: +RU486; basal 18259, control 17209.
Data set [2] deals with SID-E2C(Sp1) six-finger repressor (synthetic). Conditions: approximately; HeLa luciferase.
Data set [3] concerns E2C(Sp1) six-finger, no effector domain (synthetic). To be noted: approximately; HeLa luciferase, no effector domain.
In data set [4] the test system is E2C(Sp1)-ERD six-finger repressor (synthetic). Conditions: approximately; HeLa luciferase.
The subject of data set [5] is E2C-ER//ER-KRAB heterodimer (synthetic). Conditions: tamoxifen-dependent; partner ratio 1/10.
Data set [6] has as its system E2C-ER//ER-VP64 heterodimer (synthetic). To be noted: tamoxifen-dependent; maximum at optimised partner ratio.

As for “GCGTGGGCG (double strand) [C7 site of 6x2C7 luc reporter]”, the values for the activity (fold induction) (in the data set on 2C7LBDAS (synthetic); in the data set with C7LBDAS (synthetic); in data set [1]) were 2, 10 and 420, respectively.
On to “GCCGGAGCCATGGGGCCGGAGCC (double strand) [E2E site in erbB-2 promoter reporter]”, for which the activity (luciferase units) with E2E-PBD-VP64 (synthetic) is 15900.
Turning to “GGGGCCGGAGCCGCAGTG (double strand) [E2C site in erbB-2 promoter reporter]”, the results for the activity in [2], in [3] and in [4] were 80 % repression, 30 % repression and 50 % repression, respectively. The activity (fold repression) in data set [5] was found to be 2.9. Moreover, in data set [6], the activity (fold activation) was found to be 5.3.
